From the nanobody polyreactivity screen of Harvey et al. (2022)

Test: yeast display, Sf9 membrane polyspecificity reagent, FACS + sequencing; frameworks hold sequencing errors
Procedure, shortened: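 In a synthetic yeast display library (Saccharomyces cerevisiae BJ5465), nanobody expression was induced with galactose for 36–48 hours. FACS gates were set low and high (top ~1%) using anti-HA fluorescence for expression and streptavidin fluorescence for binding of the Sf9 membrane reagent. Each polyreactivity label is drawn from the gate of origin.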

Sequence | polyreactivity (PSR sort gate)
QVQLVESGGGLVQAGGSLRLSCAASGRTFGGNAMGWYRQAPGKERELVASISWSGGTTYYADSVKGRFTISRDNAKNTVYFQMNSLKPEDTAVYYCNTVNSQQYSSSHYDSWGQGTQVTVSS | high polyreactivity
QVQLVESGGGLVQAGGSLRLSCAASGSIFEFNTMGWYRQAPGKERELVAAISSSGGRTYYADSVKGRFTISRDNAKNSVYLQMNSLKPEDTAVYYCNARRFVHNPDYDYWGQGTQVTVSS | high polyreactivity
QVQLVESGRGLVQAGGSLRLSCAASGSTFKRYVIGWYRQAPGKERELVAVINCSGGSTYADSVKGRYTISRDNAKNTVYLQMNSLKPEDTAVYYCAKYKYYRYWGQRTQVTVSS | high polyreactivity
QVQLVESGGGLVQAGGSLRLICAASGRIFGIYAMGWYRQAPGKERELVASITGSSGSTNYADSVKGRFTISRDNAKNTVYLQMNSLKPEDTAVYYCAAERGYHGGGSGLYDYWGQGTQVTVSS | low polyreactivity
QVQLVESGGGLVQAGGSLRLSCAASGRTFGQYVMGWYRKAPGKERELVAAIRSGGSTYYADSVKGRFTISRDNAKNTVYLQMNSLKPEDTAVYYCAKETYYVTDNFGQVGGEMDYWGQGTQVTVSS | low polyreactivity
QVQLVESGGGLVQAGGSLRLSCAASGRTFGFYAMGWYRQAPGKERELVATISSSGGSTYYADSVKGRFTISRDNAKNTVYLQMNSLKPEDTAVYYCAADYLDSTYGYVYGWDDYWGQGTQVTVSS | low polyreactivity
QVQLVESGGGLVQAGGSLRLSCAASGSIFIRNAMGWYRQAPGKERELVAAITSRGGSRYYADSVKGRFTISRDNAKNTVYLQMNSLKPEDTSVYYCARRYYGLYDYWGQGTQVTVSS | low polyreactivity
QVQLVESGGGLVQAGGSLRLSCAASGSTFYIYDMGWYRQAPGKEREFVAAIDFSGSSTYADSVKGRFTISRDNAKNTVYFQINSLKPDDSAVFDCAAYQIYQYDGPYVYWGQGTQVTVSS | low polyreactivity
QVQLVESGGCLFQAGASLRLSCAASGRILAYYAMGWYRQAPGKERELVAAITSGGRTYYADSVKGRFTISRDNAKNTVYLQMNSLKPEDTAVYYCNRVTGYDSGDGYWGQGTQVTVSS | high polyreactivity
QVQLVESGGGLVQAGGSLPLRCAASGLILEYYAMGWYRQAPGKERELVAAITRGGSTYYADSVKWRFTISRDNAKNTVYLQMNSLKPEDTAVYYCAADRYYYEYDYWGQGTQVNVSS | low polyreactivity
QVQLQESGGGLVQAGGSLRLSSAASGNFFDADIIGRYRQAPGKERELVASITDGGSTNYADSVKGRFTISRDDTRNTVHLQMNSLYPEDTAVYYCAAIAYPDIPTYFDYDSDYSYWGQGTQVTVSS | high polyreactivity
QVQLVESGGCLVQAGGSLRLTCAASGRTFYWNTMGWYRQAPGKERELVAAISSSGDSTYYADSVKGRFTISRDNAKNTVYLQMNCLKPEDTAVYYCAAGRRGTSTTWGQGSQVTVSS | high polyreactivity
QVQLVESGGGLVQAGGSLRLSCAASGIIFPFYAMGWYRKAPGKERELVAAITSDGNTNYADSVKGRFTISRDNAKNTVYLQMNSLKPEDTAVYYCNAETQYGVLSWHSTRHEYWGQGTQVTVSS | low polyreactivity
QVQLVESGGGLVQAGGSLRLSCAASGSTFDYNTMGWYIQAPGKERELVAAISESGGSTYYADSVKGRFTISRDNAKNTVYLQMNSLKPEDTAVYYCATDDFGGYFGEYDYWGQGTQVTVSS | low polyreactivity
QVQLVESGGGLVQAGGSLRLSCAASGRIFYPYFMGWYRQAPGKERELVAAISASGGRTYYADSVKGRFTISRDNSKNTVYLQMNSLKPEDTAVYYCNARTVPAGTLYDYWGQGTQVTVSS | low polyreactivity
QVHLVESGGGLVQAGGSLRLSCAASGRIFARNAKGWYRQAPGKERELVATIRVGGGSTYYADSVKGRYTISRDNAKNTVYLQMNSLKPEDTAVYYCAVRQLYSYPGDRRGYYWGQGTQVTVSS | low polyreactivity
QVQLVESGGGLVQAGGSLRLSCAASGRTFRGYAMGWYRQAPGKERELVATISSRGGSTYYADSVKGRFTISRDNAKNTVYLQMNSLKPEDTAVYYCAARYIGYSSYKYDYWGQGTQVTVSS | high polyreactivity
QVQLVESGGGLVQAGGSLRLSCAASGRTFVHYTMGWYRQAPGKERELVATISTSGGSTSYADSVKGRFTISRDNAKNTVYLQMNSLIPEDTAVYYCAARWYFPDRVKYDYWGQGTQVTVSS | low polyreactivity
QVQLVESGGGLVQAGGSLRLSCAASGSIFYHNAMGWYRQAPGKERELVAAITWSGSTTYYADSVKGRFTISRDNAKKTVYLQMNSLKPEDTAVYYCNAGHRHGHYDYWGQGTQVTVSS | low polyreactivity
QVQLVESGGGLVQAGGSLRLSCAASGSIFGFNAMGWYRQAPGKERELVAAISSGSTYYADSVKGRFTISRDNAKNTVYLQKNSLKPEDTAVYYCAATTGYSWYGYWGQGPQVTVSS | low polyreactivity
QVQLVESGGGLVQAGGSLRLSCAASGRIFGVYAMGWYRQAPGKERELVAAITYRGASTYADSVKGRFTISRDNAKNTVYLQMNSLNPEDTAVYYCAAEPGSRSYGGDYWGQGTQVTVSS | high polyreactivity
QVQLVESGGGLVQAGGSLRLSCAASGRTFNINALGWYRQAPGKERELVAAITWTGGGNTYYADSVKGRFTISRDNAKNTVYLQMNSLKPEDTAVYYCNADGRNYFYEGFWEGNYWGQGTQVTVSS | low polyreactivity

Sequence | polyreactivity (PSR sort gate)
QVQLVESGGGLVQAGGSLRLSCAASGRTLQYNAMGWYRQAPGKEMELVAAISSSGGSTYYADSVKGRFTISRDNAKNTVYLQMNSLKPEDTALYYCNAYSQSWNFYGDGDYWGQGTLVTVSS | low polyreactivity
QVQLVESGGGLVQAGGSLRLSCAASGSTFYTYAMGWYRQAPGKERELVAAITYSGGTTYYADSVKGRFTISRDNAKNTVYLQMNSLKPEDTAVYYCNTRSYYYSDDYWGQGTQVTVSS | low polyreactivity
QVQLVESGGGLVQAGGSLRLSCAASGYTFRHYVMGWYRQAPGKERELVAAITYSGGSTYYADSVKGRFTISRDNAKNTVYLQMNSLKPEDTAVYYCAARRRRSDPYDFWGQGTQVTVSS | high polyreactivity
QVQHEESGGGLVQAGGSLRLSCAASGSIFRGNAMGWYRQAPGNERELVAAITRSGGRTYYADSVKGRFTISRDNAKNTVYLQMNSLKPEDTAVYYCAADYPYGSPTHFDYWGPGTQVTVSS | high polyreactivity
QVQLVESGGGLVQAGGSLRLSCAASGRIFGKYAMGWYRQAPGKERELVATISLSGVRTYYADSVKGRFTISRDNAKNTVYLQMNSLKPEDTAVYYCASCYSSNGDYWGQGTQVTVSS | low polyreactivity
QVQLVESGGGLVQAGGSLRLSCAASGLTFGYYAMGWYRQAPGKERELVAAISQSGGSTYYADSVKGRFTISRDNAKNTVYLQMNSLKPEDTAVYYCATRRYGYRYDQPYSNDYWGQGTQVTVSS | low polyreactivity
QVQLEESGGGIVQAGGSLRLSCAASGSTFGVYAMGWYRQAPGKERELVAAISSSTGSTYYADSVKGRFTISRDNAKNTVYLQMNSLKPEYTAVYYCAAAGYGKVRGDYWGQGTQVTVSS | low polyreactivity
QVQLEESGGGLVQAGGSLRLSCAASGRTFAFNAMGWYRPAPGKVRELVAVITSRTTRTYYADSVKGRFTISRDNAKNTVYLQMNSLKPEDTAVYYCAAGFRRQSIRFDYWGQGTQVTVSS | high polyreactivity
QVQLVESGGGLVQAGRSLRLSCAASGLIFYCYVMGWYRQAPRKERELVAGISRNSGSTYYADSVKGRFTISRDNAKNTVYLQMNSLKPEDTAVYYCAKAYYRRYAAPGYDYWGQVTQVTVSS | low polyreactivity
QVQLVESGGGLVQAGGSLRLSCAASGGTFTHNAMGWYRQAPGKERELVAAISSSGVRTYYADSVKGRFTISRDNAKNTVYLQMNSLKPEDTAVYYCAADRFRRLHYWTYDYWGQGTQVTVSS | high polyreactivity
QVQLVESGGGLVQAGGSLRLSCAASGFIFSNNAMGWYRQAPGKERELVAAISGRGGSTYYADSVKGRFTISRDNAKNTVYLQMNSLKPEDTAVYYCNALYTYSYSRFDYWGQGTQVTVSS | low polyreactivity
QVQLVESGGGLVQAGGSLRLSCAASGGIFKYNAMGWYRQAPGKERELVAAIDTSGGSTYYADSVKGRFTISRDNAKNTVYLQMNSLKPEDTAVYYCARRWSYQRPSFEYDSWGQGTQVTVSS | low polyreactivity
QVQLVESGGGLVQAGGSLRLSCAASGRIFRWYAMGWYRQAPGKERELVASISSGGSTNYADSVKGRFTISRDNAKNTVYLQLNSLKPEDTAVYYCAADFATPGPAYDYWGEGTQVTVSS | low polyreactivity
QVQLVESGGGLVQAGGSLRLSCAASGITFSKYAMGWYRQAPGKERELVASITWSGTSTYYADSVKGRFTISRDNAKNTVYLQMNSLKPEDTAVYYCAAEGWGTFWRPPNGYGYEHDYWGQGTQVTVSS | low polyreactivity
QVQLVESGGGLVQAGGSLRLSCAASGSTFEGYAMGWYRQAPGKEMELVAAISSSGGTTNYADSVKGRFTISRDNAKNTVYLQMNSLKPEDTAVYYCAARKYAKYFYHYDYWGQGTQVTVSS | low polyreactivity
QVQLVESGGGLVQAGGSLRLSCAASGFNFEAYTMGWYRQAPGKERELVASIDWDGGSTYYADSVKGRFTISRDNAKNTVYLQMNSLKPEDTAVYYCAADSRQYDELGDYDYWGQGTQVTVSS | low polyreactivity
QVQLVESGGGLVQAGGSLRLSCAASGIIFGSYAMGWYRQAPGKERELVAAISRGTSTYYAVSVKGRFTISRDNAKNTVYLQMNSLKPEDSAVYYCAATRQQYGPHSRFVYVNYYYCGQGTQVTVSS | low polyreactivity
QVQLVESGGGLVQAGGSLRLSCASSGRIFWTYAMGWYRQAPGKERELVAAITSGGSTYYADSVKGRFTISRDKAKNTVYLQMNSLKPEDTAVLYCAATSYYYNFLEHDYWGQGTQVTVSS | high polyreactivity
QVQLVESGGGLVQAGGSLRLSCAASGFIFYKNAKGWYRQAPGKERELVAAISQIGGTTYYADSVKGRFTISRDNAKNTVYVQMNSLKPEDTAVYYCAASRRVQSDYWGQGTQVTVSS | high polyreactivity
QVQLVESGGGLVQAGGSLRLSCAASGGTLWVNTMGWYRQAPGKERELVAAISRRGGSTYYADSVKGRFTISRDNAKNTVYLQKNSLKPEDTAVYYCAKGYSSHYWWAYDSWGQGTQVTVSS | high polyreactivity
QVQLVESGGGLVQAGGSLRLSCAASGSTFYYNAMGWYSQAPGKERELVAAISSDGSTNYADSVKGRFTISRDNAKNTVNLQMNSLKPEDTAVYYCAKKDFYFAPSPGYYRSRDYWGQGTQVTVSS | low polyreactivity
